Laboratory results: the DeepSol protein solubility set

Assay: soluble on expression in E. coli; label from the status in PepcDB or PDB records

Row | Sequence | soluble on expression in E. coli
1 | MNAPPAWAADILKKASSQALDLYNKGIGGNVYQGERIAGLGTMTKNALTGLEQAVGQYNNPALTQWFNAPTQSAHNLLGMAKGDWIGNNSKFNAALQSALSKTSDAINQSMAGAGRYGSGAHTGVLADELGALATNAAAQQYNQDIHNMMNANQMIDRSLYDQVNAANNYYQGQSNAQSNALKGGLIQDVNRQNALDAERQKWTEQDNQAWNQLERLLRVGTQAAGNYGTTSGKSTTMPSVTKDPLRDAQQVLGLMGGILGLCDVRAKENIVPVGEKNGYPLYVFNYKGDPQRYCGVLAQEVLRLKPEAVFVNAKTKLLHVDYNKIGLKMKKISEPKKRIATFFSALFARFPFLQKGYLLLEHHHHHH | soluble
2 | MNASTSSPSQQLQQAINSTIDKECAVCYSEMILPTTIPSCGHKFCFICLKGVSVSNNGDCPICRGPIDSQIFKKPLQAVDLKMDIPGTPSAAAPDPVVKQEVDDEDVKPDVKKLQEELKKQQAAAAAQKMFWLYRGRHQGWWRFDPRIEKEIEEAFTHQMPMTEVTICGNPYIVDFSQMCQYPKNQSNYSRNVKYGSRLKVLKILAKIDRKSAF | not soluble
3 | MNCRPGCGACCIAISISSPIPGMPRGKPAGVPCVQLRDDMECAIFGRPERPACCSGLRPSDEMCGGDRSHAMTWLARLEQATLPAAENTPHRPPLEHHHHHH | not soluble
4 | MNDEINEPPPNICEQCLGDEANIRMTKIPQGSECKICTLPFTLYHFKTSKRSNNIIKTLICVRCATQRNICQCCMLDSRWHIPIQLRDHLISLVNEENVMTEEAKNDMMKRFLSLKNVKLGGAQITSDPSEADNIVDKLKNILLRATSDGPSTPLIKNTTALYKNEKGANEVKNLEKYASVDISHILKKLPLNESFLKNPSTKSFFLYNIDASIPEWKITDTVSQLLGIKKWKDGNSLSLIVNHKAKCGGLRFQSSELGERFVSKISETLVTPKGLKRGVLLIDRFRIFIIPWSSGFSAASFGTNTAENIKLSLSLNKLIQLELGLSFPTKSTDNAKNDKKKTSKKVHKDRSKKSKPRANKLTI | soluble
5 | MNDELFNLIERLANLLRQETRLEGQSLGLQPIQQEALYYLSTCNRYSDTTLAVTEFLGLTKGTVSQSLKILESKSLIAKVKDKKDKRITHLKVTETGREFLMKTCPPQKFTDAIAGLSVDEEFETKTLLKKVLSNYQLATGRTAFGVCKHCKFNRKTSDGILCDLTKEALSSDDIMLICREYVV | not soluble
6 | MNDHKALKIFLMAAEKRNFAQVARELSMTAAGVTRAIAALECDLGVQLFVRTTRQVSLTTDGAVFAAQIQPAVEALENARRDVRNAHKADEGRLRISAPTWLGKTVLPPILSGFRELYPKMCFEISLSDGLVNIVDDDYDLAIRISSAPSDKFTIWRKIRAVPRILVAAPGSRFTQMKHPSDLTPDDCLAYSGESRRENWILSDGGSSITITAGRAFSANNGEVLADMAADGAGVAMLPGFHIAEHIRSGRLVHVLPGWAPPELWLTLYYPPYQTLPPRIATFSKFFEEQLTAHMVALD | not soluble
7 | MNDHLKRGNLLWEGSRMFLPEHKQSLLERKRLKQKLQKPILDPDKLEEMNQTLCAAMEFAQDITVSCFQDGEIVCCTGKICRYEEFEKAVWIKGDEDQLYKLKLDQVLDI | not soluble
8 | MNDPREILAVDPYNNITSDEEDEQAIARELEFMERKRQALVERLKRKQEFKKPQDPNFEAIEVPQSPTKNRVKVGSHNATQQGTKFEGSNINEVRLSQLQQQPKPPASTTTYFMEKFQNAKKNEDKQIAKFESMMNARVHTFSTDEKKYVPIITNELESFSNLWVKKRYIPEDDLKRALHEIKILRLGKLFAKIRPPKFQEPEYANWATVGLISHKSDIKFTSSEKPVKFFMFTITDFQHTLDVYIFGKKGVERYYNLRLGDVIAILNPEVLPWRPSGRGNFIKSFNLRISHDFKCILEIGSSRDLGWCPIVNKKTHKKCGSPINISLHKCCDYHREVQFRGTSAKRIELNGGYALGAPTKVDSQPSLYKAKGENGFNIIKGTRKRLSEEEERLKKSSHNFTNSNSAKAFFDEKFQNPDMLANLDNKRRKIIETKKSTALSRELGKIMRRRESSGLEDKSVGERQKMKRTTESALQTGLIQRLGFDPTHGKISQVLKSSVSGSEPKNNLLGKKKTVINDLLHYKKEKVILAPSKNEWFKKRSHREEVWQKHFGSKETKETSDGSASDLEII | soluble
9 | MNDQRKKARNTPFNMLKRERNRVSTVQQLTKRFSLGMLQGRGPLKLFMALVAFLRFLTIPPTAGILKRWGTIKKSKAINVLRGFRKEIGRMLNILNRRRR | soluble
10 | MNDVPHRPQVKTRKALTPLLEIRNLTKSFDGQHAVDDVSLTIYKGEIFALLGASGCGKSTLLRMLAGFEPPSSGQIMLDGVDLAHVPPYQRPINMMFQSYALFPHMTVEQNIAFGLKQDKLPKAEITSRVNEMLGLVHMQEFAKRKPHQLSGGQRQRVALARSLAKRPKLLLLDEPMGALDKKLRDRMQLEVVDILERVGVTCVMVTHDQEEAMTMAGRIAIMNRGKFVQIGEPEEIYEHPTTRYSAEFIGSVNVFEGLLKAREEDGLVIDAPGLVHPLKVDADASVVDNVPVYVALRPEKIMLCESPPADGYNFAVGEVAHIAYLGDLSIYHVRLKSGQMISAQLQNAHRYRKGLPTWGDEVRLCWEADSCVVLTV | not soluble
11 | MNEEKQQELLISVIITNYNYDQFIDQAIESVLSQTYYNFELIIVDDGSTDNSRDVISSYTDSRIKALVKNNGGQASAFNAGFEQANGEIICFLDSDDWWKPEKLETIIRWHYFINKDYAIFQHVLDVWYEGKTRPYKHILPSGDCFAEMKKVKKLDFFVPTSGLSFPKKILDRIFPIPIKFIIAADSYIMRTACVFNMVYSIPKSLGFYRQHDNTVFLNPDFDLQPFLKEILIPELNQFYQKYRINYQIEISDYNFNERKKNKKQKIFEYLKKVFFLEHHHHHH | not soluble
12 | MNEFEKLLEESIASPEEFKRGQVVKGRVVKVAGDTVFVDIGYKTEAVISKEEVPEVQEGQEIEAVLVRFSPRIPNPVLSVKPLQEKKELEKLKEAYLNKSDVVGKIEKKVKGGFIVDFEGVKAFLPMSQAGKKLKEGQVLTFKVLDFKLDSKRPQIIVSHKAYLDEQREKRKQELLNTLKPGDVVEGKVVKIDPNKGVTLVIEGVLRAFLPKEELSWGRDKNPYNYTDVGETLKVKVKRVDKQKGFIIVSLRELKGNPWEKFLKEHKEGDVIEGRVVAVTPKGVVVEVMEGVEGFVPEEELAWEGKPEFKKGDLVKAKIMKIDPKRRRLILSIKRAQPRPWEIFLQKHPVGSKVKGKVIKIEGSRAIVELEDGVKGVIHRSDLSWTRPKRVEEVLKEGEEREFAVLGLEGKYVKLGLKQLTENPWEKVKEKYKVGDVVKLPVKELAPFGAFLEFPEGVEGLLPFSEVPRHIRIRKGQEYEVKIIDINPKEGKITFSINALYGEKPEEKEEKVEEVTTATTGGFKLGEILKKRWKL | not soluble
13 | MNEFMEPLDRISAETLGHYERNAEAFFEGTRDHDVSQNIAALLSHIRTEPPFTVLDFGCGPGRDLKAFTELGHRAVGLDGAFRFVEMARDYSGCEVWHQDFLKLDLPEEHFDGIFANATLFHVPSRELPRVLGELRAALKPEGVLFASNPRGRNEEGWNRGRYGVYHDLDTWRRFLTSAGFLELEHYYRPAGLPRDQQPWLASVWRRTLEHHHHHH | soluble
14 | MNEKQKLESGQVHPSDKKSEKDYSKYFEAVYIPPSLKDAKKRGKEAVTYHNDFKISEQFKGLGDGRKFYIRTYGCQMNEHDTEVMAGIFMALGYEATNSVDDANVILLNTCAIRENAENKVFGELGHLKALKKNNPDLILGVCGCMSQEESVVNRILKKHPFVDMIFGTHNIHRLPELLSEAYLSKEMVVEVWSKEGDVIENLPKVRNGKIKGWVNIMYGCDKFCTYCIVPYTRGKERSRRPEDIIQEVRRLASEGYKEITLLGQNVNAYGKDFEDMTYGLGDLMDELRKIDIPRIRFTTSHPRDFDDRLIEVLAKGGNLLDHIHLPVQSGSSEVLKLMARKYDRERYMELVRKIKEAMPNASLTTDIIVGFPNETDEQFEETLSLYREVEFDSAYTFIYSPREGTPAAKMKDNVPMRVKKERLQRLNALVNEISAKKMKEYEGKVVEVLVEGESKNNPDILAGYTEKSKLVNFKGPKEAIGKIVRVKIQQAKTWSLDGEMVGEAIEVKLEHHHHHH | soluble
15 | MNEKVFRDPVHTYIHVNNQVIYDLINTKEFQRLRRIKQTSTTSFTFHGAEHS | not soluble
